According to publication PMC9062740:

Target: taxol-stabilized microtubules polymerized from porcine brain tubulin, P02550
Test: MT-binding assay (cosedimentation)
Settings: chain shown with the change, […] taxol–MTs, parent: est. 1.0, read off a plot

taxol-stabilized microtubules polymerized from porcine brain tubulin, P02550, sequence (P02550 whole entry, chain 1 of 2): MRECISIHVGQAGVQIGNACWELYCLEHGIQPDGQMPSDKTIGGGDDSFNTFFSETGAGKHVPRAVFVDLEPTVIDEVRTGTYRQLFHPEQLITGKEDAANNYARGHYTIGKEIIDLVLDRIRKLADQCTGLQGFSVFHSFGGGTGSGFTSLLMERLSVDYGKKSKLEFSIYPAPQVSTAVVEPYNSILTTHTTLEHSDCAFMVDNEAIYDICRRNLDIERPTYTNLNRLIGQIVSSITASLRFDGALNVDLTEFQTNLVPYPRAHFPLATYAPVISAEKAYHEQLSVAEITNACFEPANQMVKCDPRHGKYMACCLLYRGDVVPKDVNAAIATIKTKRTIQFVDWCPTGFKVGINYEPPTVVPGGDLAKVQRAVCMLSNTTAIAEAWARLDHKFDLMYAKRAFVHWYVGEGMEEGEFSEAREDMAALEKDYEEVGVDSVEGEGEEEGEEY
taxol-stabilized microtubules polymerized from porcine brain tubulin, P02550, sequence (chain, as listed by the source, chain 2 of 2): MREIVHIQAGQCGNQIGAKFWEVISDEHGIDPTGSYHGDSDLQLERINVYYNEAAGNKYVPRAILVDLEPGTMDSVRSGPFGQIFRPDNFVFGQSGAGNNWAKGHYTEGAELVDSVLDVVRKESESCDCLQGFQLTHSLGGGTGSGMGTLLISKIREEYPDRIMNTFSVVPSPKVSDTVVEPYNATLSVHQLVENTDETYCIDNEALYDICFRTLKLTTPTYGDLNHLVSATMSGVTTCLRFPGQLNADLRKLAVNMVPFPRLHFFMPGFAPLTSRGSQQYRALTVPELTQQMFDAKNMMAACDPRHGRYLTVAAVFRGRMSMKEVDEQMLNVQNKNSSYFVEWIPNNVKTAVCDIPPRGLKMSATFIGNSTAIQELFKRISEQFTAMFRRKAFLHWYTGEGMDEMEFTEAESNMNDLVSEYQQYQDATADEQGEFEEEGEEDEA

Binder | ratio to parent (5 μM CG2 mutant) | ratio to parent (5 μM CG1 mutant)
CLIP-170 CG2 fragment (206-288), P30622 K238A (protein) KKGERELKIGDRVLVGGTKAGVVRFLGETDFAAGEWCGVELDEPLGKNDGAVAGTRYFQCQPKYGLFAPVHKVTKIGFPSTTP | 0.97 | –
CLIP-170 CG2 fragment (206-288), P30622 K224A (protein) KKGERELKIGDRVLVGGTAAGVVRFLGETDFAKGEWCGVELDEPLGKNDGAVAGTRYFQCQPKYGLFAPVHKVTKIGFPSTTP | 0.4 | –
CLIP-170 CG2 fragment (206-288), P30622 K252E; N253D (protein) KKGERELKIGDRVLVGGTKAGVVRFLGETDFAKGEWCGVELDEPLGEDDGAVAGTRYFQCQPKYGLFAPVHKVTKIGFPSTTP | 0.23 | –
CLIP-170 CG2 fragment (206-288), P30622 K277A (protein) KKGERELKIGDRVLVGGTKAGVVRFLGETDFAKGEWCGVELDEPLGKNDGAVAGTRYFQCQPKYGLFAPVHAVTKIGFPSTTP | 0.75 | –
CLIP-170 CG2 fragment (206-288), P30622 K252A (protein) KKGERELKIGDRVLVGGTKAGVVRFLGETDFAKGEWCGVELDEPLGANDGAVAGTRYFQCQPKYGLFAPVHKVTKIGFPSTTP | 0.28 | –
CLIP-170 CG2 fragment (206-288), P30622 N253A (protein) KKGERELKIGDRVLVGGTKAGVVRFLGETDFAKGEWCGVELDEPLGKADGAVAGTRYFQCQPKYGLFAPVHKVTKIGFPSTTP | 0.8 | –
CLIP-170 CG1 fragment (58-140), P30622 K98E (protein) FRVGERVWVNGNKPGFIQFLGETQFAPGQWAGIVLDEPIGENDGSVAGVRYFQCEPLKGIFTRPSKLTRKVQAEDEANGLQTT | – | 0.28
CLIP-170 CG1 fragment (58-140), P30622 K98E; N99D (protein) FRVGERVWVNGNKPGFIQFLGETQFAPGQWAGIVLDEPIGEDDGSVAGVRYFQCEPLKGIFTRPSKLTRKVQAEDEANGLQTT | – | 0.42
CLIP-170 CG1 fragment (58-140), P30622 K123A (protein) FRVGERVWVNGNKPGFIQFLGETQFAPGQWAGIVLDEPIGKNDGSVAGVRYFQCEPLKGIFTRPSALTRKVQAEDEANGLQTT | – | 0.52
